PMC11078399
Residue numbers refer to the chain shown, from its start. Names and notes keep the numbering of the source.

Biological target: T1, Fzo1 (yeast mitofusin), wild type (S. cerevisiae) (UniProt P38297)
T1 sequence: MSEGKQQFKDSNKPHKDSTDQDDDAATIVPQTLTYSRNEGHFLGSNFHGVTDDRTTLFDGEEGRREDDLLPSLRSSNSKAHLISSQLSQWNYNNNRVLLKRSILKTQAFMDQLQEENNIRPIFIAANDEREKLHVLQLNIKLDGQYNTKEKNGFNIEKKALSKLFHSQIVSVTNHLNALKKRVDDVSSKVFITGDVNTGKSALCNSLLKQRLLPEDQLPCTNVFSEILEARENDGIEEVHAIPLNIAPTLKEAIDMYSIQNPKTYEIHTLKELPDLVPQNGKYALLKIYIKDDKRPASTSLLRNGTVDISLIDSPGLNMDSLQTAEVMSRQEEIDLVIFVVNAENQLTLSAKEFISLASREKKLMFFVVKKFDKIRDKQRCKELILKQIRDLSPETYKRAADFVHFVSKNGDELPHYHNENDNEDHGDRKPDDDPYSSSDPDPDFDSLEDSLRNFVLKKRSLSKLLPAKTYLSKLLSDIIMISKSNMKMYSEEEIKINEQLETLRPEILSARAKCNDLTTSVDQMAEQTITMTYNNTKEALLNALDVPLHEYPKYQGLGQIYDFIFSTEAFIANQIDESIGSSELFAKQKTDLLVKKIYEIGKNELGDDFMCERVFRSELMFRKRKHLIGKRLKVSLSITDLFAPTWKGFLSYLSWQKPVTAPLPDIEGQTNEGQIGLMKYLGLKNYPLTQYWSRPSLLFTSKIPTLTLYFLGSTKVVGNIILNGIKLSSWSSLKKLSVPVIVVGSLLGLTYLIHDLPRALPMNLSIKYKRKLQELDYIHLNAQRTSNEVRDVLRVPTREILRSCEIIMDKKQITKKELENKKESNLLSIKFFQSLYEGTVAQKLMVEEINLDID

B1: Fzo1 S201N (GTPase domain mutant) (natural protein)
chain: T1 sequence with S201N
B1 was tested, and the ex vivo PerMit contact assay with mitochondria from pex34Δ cells: decrease of specific mitochondrial attachment to peroxisome beads with FZO1 S201N against WT FZO1 mitochondria was 17%.
